Laboratory results reported in patent US20250026805A1 (DUCENTIS BIOTHERAPEUTICS, published 2025).
Changes are numbered by the printed parent chain. Numbers in names are those of the source.

T1: Recombinant Human CD200R, His tagged (human, UniProt Q8TD46 27-266, limits assumed)
T1 construct: Bought reagent; Flowed in solution as the analyte in the SPR; also called human CD200 receptor; CD200 receptor; not shown: His tag
T1 sequence (looked up): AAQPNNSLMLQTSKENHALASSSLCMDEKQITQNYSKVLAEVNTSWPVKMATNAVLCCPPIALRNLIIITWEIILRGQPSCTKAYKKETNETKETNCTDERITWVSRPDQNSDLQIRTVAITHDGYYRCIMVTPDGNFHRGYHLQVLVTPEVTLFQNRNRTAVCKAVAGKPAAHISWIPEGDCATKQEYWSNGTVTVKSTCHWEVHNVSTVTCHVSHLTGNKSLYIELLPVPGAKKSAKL

B1: DS-150 mutant CD200-Fc fusion protein (K130F, I131F, IgG2 Fc) (Fc fusion)
chain: QVQVVTQDEREQLYTPASLKCSLQNAQEALIVTWQKKKAVSPENMVTFSENHGVVIQPAYKDKINITQLGLQNSTITFWNITLEDEGCYMCLFNTFGFGFFSGTACLTVYVQPIVSLHYKFSEDHLNITCSATARPAPMVFWKVPRSGIENSTVTLSHPNGTTSVTSILHIKDPKNQVGKEVICQVLHLGTVTDFKQTVNKGERKCCVECPPCPAPPVAGPSVFLFPPKPKDTLMISRTPEVTCVVVDVSHEDPEVQFNWYVDGVEVHNAKTKPREEQFNSTFRVVSVLTVVHQDWLNGKEYKCKVSNKGLPAPIEKTISKTKGQPREPQVYTLPPSREEMTKNQVSLTCLVKGFYPSDISVEWESNGQPENNYKTTPPMLDSDGSFFLYSKLTVDKSRWQQGNVFSCSVMHEALHNHYTQKSLSLSPGK
notes: Purified as the dimeric form
B2: DS-162 mutant CD200-Fc fusion protein (I131F, IgG2 Fc) (Fc fusion)
chain: B1 chain with F100K
notes: Purified as the dimeric form
B3: DS-161 mutant CD200-Fc fusion protein (K130F, IgG2 Fc) (Fc fusion)
chain: B1 chain with F101I
notes: Purified as the dimeric form
B4: DS-149 mutant CD200-Fc fusion protein (K130Y, I131F, IgG2 Fc) (Fc fusion)
chain: B1 chain with F100Y
notes: Purified as the dimeric form
B5: DS-151 mutant CD200-Fc fusion protein (K130F, I131Y, IgG2 Fc) (Fc fusion)
chain: B1 chain with F101Y
notes: Purified as the dimeric form

Tests used:
[1] = target: T1, Recombinant Human CD200R, His tagged; assay: SPR (Biacore T200), CD200-Fc captured on anti-human Fc, His-tagged CD200R flowed over it, 25 C, 1:1 Langmuir model
Procedure: (§1) Anti-human Fc was covalently immobilized on a BIAcore CM5 sensor chip by amine coupling using a GE Healthcare kit following the manufacturer's instructions. Maximum immobilization target was set between 10000-15000 RU. Flow cell 1 was used as a reference, with no immobilized ligand, to permit deduction of non-specific binding to the chip surface. The Fc-ligands were diluted to 0.5 μg/mL in BIAcore running buffer (HBS-EP+: 10 mM HEPES buffered saline containing 2 mM EDTA and 0.05% surfactant P-20). In the final immobilization step, wild-type CD200-Fc, mutant CD200-Fc and un-related control protein (Herceptin/Trastuzumab) were passed over the chip (using flow cells 2, 3 and 4 respectively), for 120 seconds, at a concentration giving rise to a minimum of 250 response units (RU), followed by stabilization of the surface for 120 seconds in running buffer. The CD200-Fc capture procedure was repeated for every CD200R concentration.
(§2) Following capture of the Fc-tagged proteins, CD200R (at different concentrations) was flowed over the captured CD200-Fc and control proteins for 120 seconds (to observe association), followed by 120 seconds of running buffer (to observe dissociation). The chip surface was then regenerated using 10 mM Glycine-HCl (pH 2) for 30 seconds (30 μl/min flow rate) followed by stabilization of the surface for 60 seconds with BIAcore running buffer before the next cycle. All CD200R concentrations were run in duplicate at the following concentrations: 1 μM, 500 nM, 250 nM, 125 nM, 62.5 nM, 31.25 nM, 15.6 nM and 0 nM.
(§3) The results were represented in sensorgrams plotted as response or resonance units (Rus) versus time. The experimental sensorgrams were analyzed in BIAevaluation software version 1.0 (GE Healthcare). […] Rate equations using standard parameters (e.g. ligand concentration, time) were used for iterative curve fitting. Closeness of fit was determined by algorithms provided by the manufacturer in the BIAevaluation software version 1.0.

[2] = target: T1, Recombinant Human CD200R, His tagged; assay: SPR (BIAcore T200, 25 C): CD200-Fc captured through anti-human Fc on a CM5 chip, His-tagged human CD200R flowed over it. Sensorgrams fitted with the 2 site (two state) binding model. Table 4 of the text gives 3.0 nM for this fit.
Procedure: as §1, with “concentration. […]” for “concentration.”
(§4) The results were represented in sensorgrams plotted as response or resonance units (Rus) versus time. The experimental sensorgrams were analyzed in BIAevaluation software version 1.0 (GE Healthcare). […] Closeness of fit was determined by algorithms provided by the manufacturer in the BIAevaluation software version 1.0.

[3] = target: T1, Recombinant Human CD200R, His tagged; assay: SPR (Biacore T200), CD200-Fc captured on anti-human Fc, His-tagged CD200R flowed over it, 25 C, two state binding model
Procedure: as §1, with “concentration. […]” for “concentration.”
as §4

[4] = target: T1, Recombinant Human CD200R, His tagged; assay: SPR (Biacore T200), CD200-Fc captured on anti-human Fc, His-tagged CD200R flowed over it, 25 C, 1:1 binding model
Procedure: as §1, §2, §3

| Molecule | Kd [1] [nM] | koff [1] [s⁻¹] | kon [1] [M⁻¹ s⁻¹] | t½ [1] [min] | Kd [2] [nM] | Kd [3] [nM] | Kd [4] [nM] | koff [4] [s⁻¹] | kon [4] [M⁻¹ s⁻¹] | t½ [4] [min] |
| --- | --- | --- | --- | --- | --- | --- | --- | --- | --- | --- |
| DS-155 wild-type CD200-Fc fusion protein (IgG4 S228P Fc) | 50 | 0.0251 | 543000 | 0.467 | – | – | – | – | – | – |
| B1 | 2.6 | 0.000226 | 87500 | 51.2 | – | – | – | – | – | – |
| B2 | – | – | – | – | 3.1 | 3 | 3 | 0.00474 | 1.9e+06 | 2.43 |
| B3 | 0.7 | 0.000593 | 838000 | 19.5 | – | – | – | – | – | – |
| B4 | 1.9 | 0.000229 | 132000 | 50.5 | – | – | – | – | – | – |
| B5 | 1.4 | 0.000181 | 128000 | 63.8 | – | – | – | – | – | – |
